From patent US20200377609A1

Legend:
BCMA-AM1 [1] = test: flow cytometry; supernatant on CAR-transduced Jurkat cells (BCMA-AM1), FITC goat anti-rabbit F(ab')2 detection
BCMA-AM2 [2] = test: flow cytometry; supernatant on CAR-transduced Jurkat cells (BCMA-AM2), FITC goat anti-rabbit F(ab')2 detection
anti-BCMA CAR [3] = test: flow cytometry; clonal supernatant on anti-BCMA CAR T cells, FITC goat anti-rabbit F(ab')2 detection
CAR-2 = test: flow cytometry; clonal supernatant on control CAR-2 T cells, FITC goat anti-rabbit F(ab')2 detection
CAR-3 = test: flow cytometry; clonal supernatant on control CAR-3 T cells, FITC goat anti-rabbit F(ab')2 detection
anti-BCMA CAR [4] = test: flow cytometry; supernatant on CAR-transduced Jurkat cells (panel BCMA WT), FITC goat anti-rabbit F(ab')2 detection
BCMA-AM1 [5] = test: flow cytometry; supernatant on CAR-transduced Jurkat cells (panel BCMA-AM1), FITC goat anti-rabbit F(ab')2 detection
BCMA-AM2 [6] = test: flow cytometry; supernatant on CAR-transduced Jurkat cells (panel BCMA-AM2), FITC goat anti-rabbit F(ab')2 detection

Binder | FITC+ (gate frequency) (BCMA-AM1 [1]) | FITC+ (gate frequency) (BCMA-AM2 [2]) | CAR+ (gate frequency) (anti-BCMA CAR [3]) | CAR+ (gate frequency) (CAR-2) | CAR+ (gate frequency) (CAR-3) | FITC+ (gate frequency) (anti-BCMA CAR [4]) | FITC+ (gate frequency) (BCMA-AM1 [5]) | FITC+ (gate frequency) (BCMA-AM2 [6])
Clone 9-1 (antibody, V domains shown) VH: QQQLEESGGGLVKPGGTLTLTCTASGFSFSSGQWMCWVRQAPGKGLELIACIYTSAGGSTHYASWATGRFTISKTSSTTVTLQMTSLTAADTATYFCARDPYLLSAGPDNNLWGPGTLVAVSS VL: ALVMTQTPSPVSAAVGGTVTINCQASQSIGSDFTWWQQKPGQPPKLLIYWASTLASGVSSRFKGSGSGTQFTLTISDLECDDAATYYCAGYVSYSDDGNAFGGGTEVVVK | – | – | 60.9 | 0.18 | 0.11 | 75.2 | 0.14 | 95.3
Clone 9-9 (antibody, V domains shown) VH: QQQLEESGGGLVKPGGTLTLTCTASGFSFSSGQRMCWVRQAPGKGLELIACIYTSAGGSTHYASWATGRFTISKTSSTTVTLQMTSLTAADTATYFCARDPYLLSAGPDNNLWGPGTLVAVSS VL: ALVMTQTPSPVSAAVGGTVTINCQASQSIGSDFTWWQQKPGQPPKLLIYWASTLASGVSSRFKGSGSGTQFTLTISDLECDDAATYYCAGYVSYSDDGNAFGGGTEVVVK | – | – | 51.8 | 0.067 | 0.13 | – | – | –
Clone 63-1 (antibody, V domains shown) VH: QEQLEESGGDLVKPGASLTLTCTASGFSFSSGYWICWVRQAPGKGLEWIACIYTRSGGSTHYASWAKGRFTTSKTSSTTVTLQMTSLTAADMATYFCARDPYVLSAGPDNVLWGPGTLVTVSS VL: ALVMTQTPSPVSAAVGGTVTINCQASESIGSDLGWYQQKPGQPPKFLIYWASTLVSGVPSRFEGSGSGTQFTLTISDLECDDAATYYCAGYESLSNDGNAFGGGTEVVVK | – | – | 58.2 | 0.1 | 0.14 | – | – | –
Clone 18-4 (antibody, V domains shown) VH: QERLVESGGGLVQPEGSLTLTCTASGLTLSNYWLCWVRQAPGKGLEWIACIYTGNYGSAYYANWVKGRFTISKASSTTVTLQMTSLTAADTATYFCARDPYTLTNVDVLWGPGTLVTVSS VL: ALVMTQTPSPVSAAVGGTVTINCQASQSIGSDLAWYQQRPGQPPKLLIYWASTLASGVPSRFSGSGSGTQFTLTISDLECDDAATYYCTGYISYNDDNAAFGGGTEVVVK | – | – | 41.7 | 0.09 | 1.81 | – | – | –

Results, then the binder that gave them:

FITC+ (gate frequency) (BCMA-AM1 [1]) | FITC+ (gate frequency) (BCMA-AM2 [2]) | CAR+ (gate frequency) (anti-BCMA CAR [3]) | CAR+ (gate frequency) (CAR-2) | CAR+ (gate frequency) (CAR-3) | FITC+ (gate frequency) (anti-BCMA CAR [4]) | FITC+ (gate frequency) (BCMA-AM1 [5]) | FITC+ (gate frequency) (BCMA-AM2 [6]) | Binder
82.4 | 91.6 | – | – | – | – | – | – | Clone 77-9 (antibody, V domains shown) VH: QSLEESGGALVKPGASLALTCTASGFSFNLRHYMCWVRQAPGKGLEWIGCVHGGSSGGTYYASWTKGRFTISKTSSTTVTLQMTSLTAADTATYFCAREDDIMMAGEFSLWGPGTLVTVSS VL: DIVMTQTPSSVEASVGGTVTIKCQASEDIESYLVWYQQKPGQPPKLLIYQASNLASGVPSRFYGSGSGTQFTLTISDLECADASTYYCQSYVEGGVDVVFGGGTEVVVK
83.4 | 90.2 | – | – | – | – | – | – | Clone 83-3 (antibody, V domains shown) VH: QSLEESGGDLVKPGASLTLTCTASGFSFNLRHYMCWVRQAPGKGLEWIGCVHGGSSSGTYYASWAKGRFTISKTSSTTVTLQMTSLTAADTATYFCTREDDIMMAGEFGLWGPGTLVTVSS VL: DIVMTQTPSSVSEPVGGTVTIKCQASEDIESYLVWYQQKPGQPPKLLIYQASNLASGVPSRFSGSGSGTEYTLTISDLECADAATYYCQSYIEGGVDVVFGGGTEVVVK
82.7 | 0.042 | – | – | – | – | – | – | Clone 89-10 (antibody, V domains shown) V domain 1: QEQLVESRGGLVKPGGSLTLTCKASGFSFSTGYYACWVRQAPGKGLELSACVDTGSGDTFYASWARGRFTISKTSSSTVTLQMTSLTVADTATYFCARTALVMTDFYFNLWGPGTLTTVSS V domain 2: ALVMTQTPASVEAAVGGTVTINCQASQWISNELSWYQQKPGQPPKLLIYLASTLASGVPSRFKGSGSGTEFTLTISDLECADAATYYCQQGYNIGHLDNAFGGGTEVVVK
– | – | 47.1 | 0.067 | 0.15 | – | – | – | Clone 154-7 (antibody, V domains shown) VH: QSLEESGGDLVKPEGSLTLTCTASGFSFSSSYWICWVRQAPGKGLEWIACIYTANSGRTVYASWAKGRFTISKTSSTTVTLQLPSLTAADTATYFCARDIYVLTTTDNLWGPGTLVTVSS VL: ALVMTQAPSPVSAAVGGTVTISCQASQPIGSDLVWYQQKPGQPPKLLIYYASDLASGVPSRFKGSGSGTRFTLTISGVECDDAATYYCAGYKNYDHDDCGFGGGTEVVVK
– | – | 31.5 | 0.22 | 0.067 | – | – | – | Clone 80-7 (antibody, V domains shown) VH: QEQLEESGGDLVKPEGSLTLTCTASGFSFSSAYWICWVRQVPGKGLEWIACIYTGSGGRSHYASWAKGRFTISKTSSTTVTLQMTSLTAADTATYFCARDPYILSAGPDNVLWGPGTLVTVSS VL: ALVMTQTPSPVSAAVGGTVTINCQASQSIGSDLGWFQQKPGQPPKLLIYWASTLASGVPSRFEGSGSGTQFTLTISDLECDDAATYYCAGYESLSNDGNAFGGGTEVVVK
– | – | 42.4 | 0.11 | 0.093 | – | – | – | Clone 137-2 (antibody, V domains shown) VH: QEQLVESGGGLVQPEGSLTLTCTASGFSFSLSNWICWVRQAPGKGLEWVACIYVSVSGNTRYASWAKGRFTISETSSTTVTLQMTGLTAADTATYFCARDPFSLVSVDRSLWGPGTLVTVSS VL: ALVMTQTPSPVSAAVGGTVTINCQASQSIGSDLSWFQQKPGQPPKLLMYWASSLASGVPSRFKGSGSGTQFTLTISDLECDDAATYYCAGYVNYNNDDAAFGGGTEVVVK
